Among the data in paper PMC6265350 are binding values, retold here.

One data set addresses T1, MtrA~P (UniProt P9WGM7).
T1 sequence: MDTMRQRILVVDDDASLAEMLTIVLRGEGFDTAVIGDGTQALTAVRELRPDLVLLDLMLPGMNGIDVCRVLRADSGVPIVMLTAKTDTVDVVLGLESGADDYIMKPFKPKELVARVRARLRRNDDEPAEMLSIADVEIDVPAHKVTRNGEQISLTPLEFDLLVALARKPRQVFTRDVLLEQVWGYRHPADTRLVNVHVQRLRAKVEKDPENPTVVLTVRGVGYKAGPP
The data set can be described thus: EMSA. Conditions: 50 mM Tris-HCl pH 7.5, 50 mM NaCl, 10 mM MgCl2, 10 mM CaCl2, poly dI/dC and sheared salmon sperm DNA (1 ug), 37 C 15 min; 200 fmol DNA, 1-10 uM protein; 5% …. In general terms: A gel shift assay detects complexes by their altered migration in electrophoresis.

The target of another data set is T2, MtrA (unphosphorylated) (UniProt P9WGM7).
T2 sequence: T1 sequence
The data set can be described thus: EMSA. Conditions: 50 mM Tris-HCl pH 7.5, 50 mM NaCl, 10 mM MgCl2, 10 mM CaCl2, […].

For the sequence “CTGTGCAGAGTAGGTGATCGGCGGCCCGACCGCGAGGAGCCGCGCTGTGACTGGCGGGACGAAAGTTACAGATGAAGATATTTGCGTCCGGTGTCGGTGAGCACGCTGCGCAGGATGGTTTCGATGGTGTCGAACTCGGGCTGTCCGCTAATCAGCGGGGGAGCCACCTGGACGACGGGGTCCCCGCGGTCGTCGGTG (double strand) [PdacB1]”, in the data set with MtrA~P, the binding entry is recorded as “binds”.
In the case of “TCGACTCAGATCTCCTAGGGCTCAACTCGGAGGGACAGCGCAGGTCAACGCCAACGACACCACAAGCATCATTTGCACCGTACGTCACATCTGACGCTATGGAAACGTAAGTCACAAACTGCCCCCGGTACGTGCGACTAATGTGACCCAACGGTGACCTCGCGCGTTTGCCGCAAACAACCGCCCGGTTAGCGCGGCAA (double strand) [PripA]”, the binding entry with MtrA (unphosphorylated) and in the data set with MtrA~P was “binds” each time.
